Experimental data: publication PMC4394509

Key:
Experiment in all cases: FRET or BRET; acceptor-bleaching FRET at kinetochores of transfected human cells (HeLa, HEp-2, U2OS), in vivo or in situ; donor EGFP, acceptor mCherry; E_FRET of a bleached region compared with EVAR of an unbleached region
[1] = target: CENP-S-mCherry (UniProt Q8N2Z9)
[2] = target: mCherry-CENP-S (UniProt Q8N2Z9)
[3] = target: EGFP-CENP-U (UniProt Q71F23)
[4] = target: mCherry-CENP-B (UniProt P07199)
[5] = target: mCherry-H3.1 (human) (UniProt P68431)
[6] = target: CENP-B-mCherry (UniProt P07199)

Chain of UniProt Q71F23 (Q71F23 whole entry): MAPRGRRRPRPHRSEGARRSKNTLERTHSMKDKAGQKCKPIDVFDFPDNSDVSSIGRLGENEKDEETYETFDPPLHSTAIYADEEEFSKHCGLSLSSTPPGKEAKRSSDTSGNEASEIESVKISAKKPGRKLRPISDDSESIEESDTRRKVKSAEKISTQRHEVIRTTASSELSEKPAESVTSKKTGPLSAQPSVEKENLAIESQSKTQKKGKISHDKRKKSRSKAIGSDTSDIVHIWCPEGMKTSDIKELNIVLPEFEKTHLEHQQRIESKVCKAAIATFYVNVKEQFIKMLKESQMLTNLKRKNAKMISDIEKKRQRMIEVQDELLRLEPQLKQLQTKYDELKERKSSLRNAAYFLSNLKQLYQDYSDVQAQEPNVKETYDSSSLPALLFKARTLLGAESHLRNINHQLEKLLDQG

## CENP-M-EGFP (from UniProt Q9NSP4 1-180) (natural protein)
[1]
  mean E FRET %: 3.49%
  ΔE %: 3.91%
[2]
  mean E FRET %: 4%
  ΔE %: 4.78%

## CENP-M-mCherry (from UniProt Q9NSP4 1-180) (natural protein)
[3]
  mean E FRET %: 6.08%
  ΔE %: 7.86%

## CENP-W-EGFP (from UniProt Q5EE01 1-88) (natural protein)
[4]
  mean E FRET %: 5.07%
  ΔE %: 4.4%
[5]
  mean E FRET %: 3.7%
  ΔE %: 5.8%

## EGFP-CENP-W (from UniProt Q5EE01 1-88) (natural protein)
[6]
  mean E FRET %: 4.37%
  ΔE %: 3.6%
